{
  "source": "paper PMC7873046",
  "about": "“Structure of the Complete Dimeric Human GDAP1 Core Domain Provides Insights into Ligand Binding and Clustering of Disease Mutations” (Frontiers in Molecular Biosciences, 2021)",
  "molecules": {"B1": {"name": "GDAP1∆303-358 Y29F (domain or fragment, human, UniProt Q8TB36 1-302, looked up)", "chain": "MAERQEEQRGSPPLRAEGKADAEVKLILFHWTHSFSSQKVRLVIAEKALKCEEHDVSLPLSEHNEPWFMRLNSTGEVPVLIHGENIICEATQIIDYLEQTFLDERTPRLMPDKESMYYPRVQHYRELLDSLPMDAYTHGCILHPELTVDSMIPAYATTRIRSQIGNTESELKKLAEENPDLQEAYIAKQKRLKSKLLDHDNVKYLKKILDELEKVLDQVETELQRRNEETPEEGQQPWLCGESFTLADVSLAVTLHRLKFLGFARRNWGNGKRPNLETYYERVLKRKTFNKVLGHVNNILIS", "notes": "Point mutant of m2, made by site-directed mutagenesis PCR; source: E. coli BL21 (DE3), purified (Ni-NTA, TEV cleavage, SEC); not shown: His6, N-terminal, cleaved"}, "B2": {"name": "GDAP1∆303-358 (domain or fragment, human, UniProt Q8TB36 1-302, looked up)", "chain": "B1 chain with F29Y", "notes": "The constructs were put into pTH27 (N-terminal His6) and pDEST-Trx (N-terminal thioredoxin); Tag cleaved with TEV protease; also called complete human GDAP1 core domain; source: E. coli BL21 (DE3), purified (Ni-NTA, TEV cleavage, SEC); not shown: His6, N-terminal, cleaved"}, "B3": {"name": "GDAP1∆319-358 (domain or fragment, human, UniProt Q8TB36 1-318, looked up)", "chain": "MAERQEEQRGSPPLRAEGKADAEVKLILYHWTHSFSSQKVRLVIAEKALKCEEHDVSLPLSEHNEPWFMRLNSTGEVPVLIHGENIICEATQIIDYLEQTFLDERTPRLMPDKESMYYPRVQHYRELLDSLPMDAYTHGCILHPELTVDSMIPAYATTRIRSQIGNTESELKKLAEENPDLQEAYIAKQKRLKSKLLDHDNVKYLKKILDELEKVLDQVETELQRRNEETPEEGQQPWLCGESFTLADVSLAVTLHRLKFLGFARRNWGNGKRPNLETYYERVLKRKTFNKVLGHVNNILISAVLPTAFRVAKKRAPK", "notes": "The constructs were put into pTH27 (N-terminal His6) and pDEST-Trx (N-terminal thioredoxin); Tag cleaved with TEV protease; also called ganglioside-induced differentiation-associated protein 1, C-terminally truncated; source: E. coli BL21 (DE3), purified (Ni-NTA, TEV cleavage, SEC); not shown: His6, N-terminal, cleaved"}, "B4": {"name": "GDAP1∆295-358 (domain or fragment, human, UniProt Q8TB36 1-294, looked up)", "chain": "MAERQEEQRGSPPLRAEGKADAEVKLILYHWTHSFSSQKVRLVIAEKALKCEEHDVSLPLSEHNEPWFMRLNSTGEVPVLIHGENIICEATQIIDYLEQTFLDERTPRLMPDKESMYYPRVQHYRELLDSLPMDAYTHGCILHPELTVDSMIPAYATTRIRSQIGNTESELKKLAEENPDLQEAYIAKQKRLKSKLLDHDNVKYLKKILDELEKVLDQVETELQRRNEETPEEGQQPWLCGESFTLADVSLAVTLHRLKFLGFARRNWGNGKRPNLETYYERVLKRKTFNKVLG", "notes": "The constructs were put into pTH27 (N-terminal His6) and pDEST-Trx (N-terminal thioredoxin); also called ganglioside-induced differentiation-associated protein 1, C-terminally truncated; GDAP1 core domain; source: E. coli BL21 (DE3), purified (Ni-NTA, TEV cleavage, SEC); not shown: His6, N-terminal, cleaved"}},
  "key": {"[1]": {"target": "T1, GDAP1∆319-358 (Homo sapiens, UniProt Q8TB36)", "T1 construct": "C-terminally truncated (residues 319-358 deleted; hydrophobic and transmembrane region), alpha-loop insertion kept; N-terminal tag cut with TEV; E. coli BL21(DE3); monomer/dimer equilibrium", "T1 sequence (Q8TB36 1-318)": "B3 chain", "test": "differential scanning fluorimetry (SYPRO Orange)", "type": "binding", "conditions": "pH 7.5, 300 mM NaCl, 2% DMSO; HA titrated up to 250 µM"}, "[2]": {"target": "T2, GDAP1∆295-358 (Homo sapiens, UniProt Q8TB36)", "T2 construct": "C-terminally truncated (residues 295-358 deleted), alpha-loop insertion kept; N-terminal tag cut with TEV; E. coli BL21(DE3); monomer/dimer equilibrium", "T2 sequence (Q8TB36 1-294)": "B4 chain", "test": "isothermal titration calorimetry", "type": "binding", "text": "isothermal titration calorimetry on GDAP1∆295-358"}, "[3]": {"target": "the molecule itself", "test": "non-reducing SDS-PAGE; SEC eluates of purified proteins on a non-reducing gel (GDAP1L1 also on a reducing gel); shows the covalent (disulfide) dimer"}, "[4]": {"target": "the molecule itself", "test": "SEC-MALS; Superdex 75 10/300 GL increase in SEC buffer (25 mM HEPES pH 7.5, 300 mM NaCl); protein 1-10 mg/ml, 15-150 µg injected"}, "[5]": {"target": "the molecule itself", "test": "SEC-SAXS; 50 µL of protein at 8.5-10 mg/ml injected into BioSEC3-300 or Superdex 75 10/300 GL increase; 25 mM HEPES pH 7.5, 300 mM NaCl; +15 °C; GDAP1∆295-358 and GDAP1∆319-358 also with hexadecanedioic acid (HA), which gave a higher monomer fraction"}},
  "note": "Numbering of substitutions follows the chain as printed.",
  "data": [
    {"molecule": "O=C(O)CCCCCCCCCCCCCCC(=O)O", "note": "[hexadecanedioic acid]", "values": [
      {"measurement": "dTm", "setting": "[1]", "value": "~ 3 °C"},
      {"measurement": "Kd", "setting": "[2]", "value": "2000 ± 800", "unit": "nM"}
    ]},
    {"molecule": "B1", "values": [
      {"measurement": "stoichiometry N", "setting": "[3]", "value": 2}
    ]},
    {"molecule": "B2", "values": [
      {"measurement": "stoichiometry N", "setting": "[4]", "value": 2}
    ]},
    {"molecule": "B3", "values": [
      {"measurement": "stoichiometry N", "setting": "[5]", "value": 2}
    ]},
    {"molecule": "B4", "values": [
      {"measurement": "stoichiometry N", "setting": "[5]", "value": 2}
    ]}
  ]
}
